Test results: patent US20260274993A1

Experiments:
[1] = target: VH4-34 endogenously expressed by cell line GA-10; assay: flow cytometry, EC50 of % parent (APC), GA-10 cells endogenously expressing VH4-34; curve in FIG. 5A rises to about 66 % at Log M about -7.2 without a plateau
[2] = target: VH4-34 endogenously expressed by cell line HBL-1; assay: flow cytometry, EC50 of % parent (APC), HBL-1 cells endogenously expressing VH4-34; curve in FIG. 5A rises to about 57 % at Log M about -7.2 without a plateau

EC50 [1]: 1.52 nM
EC50 [2]: 240 nM
B1: D011-1E11-5T2.IgG2a (antibody, V domains shown)
VH: QVQLVQSGAEVKKPGASMKVSCKASGYSFTGSTMNWVRQAPGQGLEWMGWINPYNGGTNYAQKFQGRVTMTRDTSISTAYMELSRLRSDDTAVYYCASRGKNGYDGRDFDCWGQGTLVTVSS
VL: EIVLTQSPATLSLSPGERATLSCKSTKSLLNSGGFSYLDWYQQKPGQAPRLLIYLVSNRFTGIPARFSGSGSGTDFTLTISSLEPEDFAVYYCFQSNYFPFTFGQGTKLEIKR
